Test results taken from patent US20240132624A1 (Ablynx, published 2024).

Columns and labels:
[1] = biological target: T1, human FcRn/b2M (human, UniProt P61769 21-119, biotinylated); experiment: SPR pH 6.0;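 also: surface plasmon resonance kinetics at 25 °C, diluted periplasmic extracts injected over immobilized ligand surfaces, 120 s association then 600–3600 s dissociation, running buffer containing 150 mM NaCl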
T1 construct: bought recombinant biotinylated protein (ACRO FCM-H82W4 or Immunitrack ITF01); also called hFcRn; hFcRn/hb2M
Protocol: (§1) All kinetic measurements have been performed on ProteOn XPR36 (BioRad Laboratories, Inc.), MASS-2 (Sierra sensors, Gmbh) or SPR-32 (Bruker Corporation). […] The phytip purified periplasmic extracts were diluted 1:10 in running buffer (CPA+150 mM NaCl+0.005% Tw20 at pH 5.5, pH 6.0 or pH 7.4) and injected over the ligand surfaces (association: 120 s at 45 μL/min; dissociation: 600s-3600 s at 45 μL/min). Experiments were carried out at 25° C.

[2] = biological target: T2, cyno FcRn/b2M (cyno, UniProt Q8SPV9 24-297; Q8SPW0 21-119, biotinylated); experiment: SPR pH 6.0;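 also: surface plasmon resonance kinetics at 25 °C, diluted periplasmic extracts injected over immobilized ligand surfaces, 120 s association then 600–3600 s dissociation, running buffer containing 150 mM NaCl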
T2 construct: bought recombinant biotinylated protein (Immunitrack ITF05 or ACRO FCM-C82W5); also called cFcRn; cFcRn/cb2M
T2 sequence (Q8SPV9 24-297 limits assumed, chain 1 of 2): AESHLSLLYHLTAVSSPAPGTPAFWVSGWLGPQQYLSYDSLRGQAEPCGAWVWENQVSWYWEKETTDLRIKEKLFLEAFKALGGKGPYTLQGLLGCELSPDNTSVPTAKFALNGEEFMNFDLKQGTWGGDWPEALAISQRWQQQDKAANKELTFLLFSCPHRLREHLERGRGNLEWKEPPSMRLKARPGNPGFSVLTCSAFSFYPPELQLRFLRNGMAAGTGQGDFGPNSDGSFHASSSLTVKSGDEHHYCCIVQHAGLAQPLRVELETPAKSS
T2 sequence (Q8SPW0 21-119 limits assumed, chain 2 of 2): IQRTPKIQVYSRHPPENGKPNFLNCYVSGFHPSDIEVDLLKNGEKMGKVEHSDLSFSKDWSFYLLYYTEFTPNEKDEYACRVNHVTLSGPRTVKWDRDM
Protocol: as §1

[3] = biological target: T1, human FcRn/b2M; experiment: SPR pH 7.4;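 also: surface plasmon resonance kinetics, periplasmic extracts diluted 1:10 flowed over immobilized target at 25 °C, 120 s association then 600–3600 s dissociation, buffer with 150 mM NaCl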
Protocol: as §1

[4] = biological target: T2, cyno FcRn/b2M; experiment: SPR pH 7.4;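 also: surface plasmon resonance kinetics, periplasmic extracts diluted 1:10 flowed over immobilized target at 25 °C, 120 s association then 600–3600 s dissociation, buffer with 150 mM NaCl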
Protocol: as §1

[5] = biological target: T1, human FcRn/b2M; experiment: SPR off-rate; pH 7.4 vs pH 6.0;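 also: surface plasmon resonance with diluted periplasmic extracts flowed over ligand surfaces, 120 s association and 600–3600 s dissociation at 25 °C, running buffer containing 150 mM NaCl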
Protocol: as §1

[6] = biological target: T2, cyno FcRn/b2M; experiment: SPR off-rate; pH 7.4 vs pH 6.0;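 also: surface plasmon resonance with diluted periplasmic extracts flowed over ligand surfaces, 120 s association and 600–3600 s dissociation at 25 °C, running buffer containing 150 mM NaCl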
Protocol: as §1

Row | Binder | koff [1] [s⁻¹] | koff [2] [s⁻¹] | koff [3] [s⁻¹] | koff [4] [s⁻¹] | kd ratio pH 7.4/6.0 [5] | kd ratio pH 7.4/6.0 [6]
1 | T0263018B11 T28L (VHH, name in Kabat numbering, FLAG3-His6 tagged) VHH: EVQLVESGGGVVQPGGSLRLSCAASGFLFSSYAMYWVRQAPGKGLEWVSAISSGGGSTDYADSVKGRFTISRDNSKNTLYLQMNSLRPEDTALYYCAADTLYTSLTWYSYWGQGTLVTVSS | 0.0018 | 0.0013 | 0.073 | 0.062 | 41 | 48
2 | T0263018B11 T28W (VHH, name in Kabat numbering, FLAG3-His6 tagged) VHH: EVQLVESGGGVVQPGGSLRLSCAASGFWFSSYAMYWVRQAPGKGLEWVSAISSGGGSTDYADSVKGRFTISRDNSKNTLYLQMNSLRPEDTALYYCAADTLYTSLTWYSYWGQGTLVTVSS | 0.00041 | 0.00017 | 0.024 | 0.014 | 59 | 80
3 | T0263018B11 T57F (VHH, name in Kabat numbering, FLAG3-His6 tagged) VHH: EVQLVESGGGVVQPGGSLRLSCAASGFTFSSYAMYWVRQAPGKGLEWVSAISSGGGSFDYADSVKGRFTISRDNSKNTLYLQMNSLRPEDTALYYCAADTLYTSLTWYSYWGQGTLVTVSS | 0.00099 | 0.00084 | 0.033 | 0.036 | 33 | 43
4 | T0263018B11 T57I (VHH, name in Kabat numbering, FLAG3-His6 tagged) VHH: EVQLVESGGGVVQPGGSLRLSCAASGFTFSSYAMYWVRQAPGKGLEWVSAISSGGGSIDYADSVKGRFTISRDNSKNTLYLQMNSLRPEDTALYYCAADTLYTSLTWYSYWGQGTLVTVSS | 0.0015 | 0.0014 | 0.049 | 0.06 | 33 | 43
5 | T0263018B11 T57L (VHH, name in Kabat numbering, FLAG3-His6 tagged) VHH: EVQLVESGGGVVQPGGSLRLSCAASGFTFSSYAMYWVRQAPGKGLEWVSAISSGGGSLDYADSVKGRFTISRDNSKNTLYLQMNSLRPEDTALYYCAADTLYTSLTWYSYWGQGTLVTVSS | 0.0011 | 0.0009 | 0.04 | 0.035 | 37 | 39
6 | T0263018B11 T28N (VHH, name in Kabat numbering, FLAG3-His6 tagged) VHH: EVQLVESGGGVVQPGGSLRLSCAASGFNFSSYAMYWVRQAPGKGLEWVSAISSGGGSTDYADSVKGRFTISRDNSKNTLYLQMNSLRPEDTALYYCAADTLYTSLTWYSYWGQGTLVTVSS | 0.0019 | 0.0009 | 0.097 | 0.069 | 51 | 77
7 | T0263018B11 T28P (VHH, name in Kabat numbering, FLAG3-His6 tagged) VHH: EVQLVESGGGVVQPGGSLRLSCAASGFPFSSYAMYWVRQAPGKGLEWVSAISSGGGSTDYADSVKGRFTISRDNSKNTLYLQMNSLRPEDTALYYCAADTLYTSLTWYSYWGQGTLVTVSS | 0.0015 | 0.0012 | 0.039 | 0.033 | 26 | 28
8 | T0263018B11 T28Y (VHH, name in Kabat numbering, FLAG3-His6 tagged) VHH: EVQLVESGGGVVQPGGSLRLSCAASGFYFSSYAMYWVRQAPGKGLEWVSAISSGGGSTDYADSVKGRFTISRDNSKNTLYLQMNSLRPEDTALYYCAADTLYTSLTWYSYWGQGTLVTVSS | 0.0012 | 0.00053 | 0.071 | 0.042 | 59 | 79
9 | T0263018B11 T28V (VHH, name in Kabat numbering, FLAG3-His6 tagged) VHH: EVQLVESGGGVVQPGGSLRLSCAASGFVFSSYAMYWVRQAPGKGLEWVSAISSGGGSTDYADSVKGRFTISRDNSKNTLYLQMNSLRPEDTALYYCAADTLYTSLTWYSYWGQGTLVTVSS | 0.0032 | 0.0022 | 0.12 | 0.092 | 38 | 42

The remaining lines, values ahead:

Row | koff [1] [s⁻¹] | koff [2] [s⁻¹] | koff [3] [s⁻¹] | koff [4] [s⁻¹] | kd ratio pH 7.4/6.0 [5] | kd ratio pH 7.4/6.0 [6] | Binder
10 | 0.0009 | 0.00073 | 0.033 | 0.028 | 37 | 38 | T0263018B11 T57W (VHH, name in Kabat numbering, FLAG3-His6 tagged) VHH: EVQLVESGGGVVQPGGSLRLSCAASGFTFSSYAMYWVRQAPGKGLEWVSAISSGGGSWDYADSVKGRFTISRDNSKNTLYLQMNSLRPEDTALYYCAADTLYTSLTWYSYWGQGTLVTVSS
11 | 0.00077 | 0.00064 | 0.034 | 0.027 | 44 | 42 | T0263018B11 T57V (VHH, name in Kabat numbering, FLAG3-His6 tagged) VHH: EVQLVESGGGVVQPGGSLRLSCAASGFTFSSYAMYWVRQAPGKGLEWVSAISSGGGSVDYADSVKGRFTISRDNSKNTLYLQMNSLRPEDTALYYCAADTLYTSLTWYSYWGQGTLVTVSS
12 | 0.0015 | 0.0013 | 0.045 | 0.054 | 30 | 42 | T0263018B11 T57P (VHH, name in Kabat numbering, FLAG3-His6 tagged) VHH: EVQLVESGGGVVQPGGSLRLSCAASGFTFSSYAMYWVRQAPGKGLEWVSAISSGGGSPDYADSVKGRFTISRDNSKNTLYLQMNSLRPEDTALYYCAADTLYTSLTWYSYWGQGTLVTVSS
13 | 0.0016 | 0.00097 | 0.067 | 0.047 | 42 | 49 | T0263018B11 T96M (VHH, name in Kabat numbering, FLAG3-His6 tagged) VHH: EVQLVESGGGVVQPGGSLRLSCAASGFTFSSYAMYWVRQAPGKGLEWVSAISSGGGSTDYADSVKGRFTISRDNSKNTLYLQMNSLRPEDTALYYCAADMLYTSLTWYSYWGQGTLVTVSS
14 | 0.00047 | 0.00036 | 0.021 | 0.014 | 45 | 40 | T0263018B11 T96V (VHH, name in Kabat numbering, FLAG3-His6 tagged) VHH: EVQLVESGGGVVQPGGSLRLSCAASGFTFSSYAMYWVRQAPGKGLEWVSAISSGGGSTDYADSVKGRFTISRDNSKNTLYLQMNSLRPEDTALYYCAADVLYTSLTWYSYWGQGTLVTVSS
15 | 0.0011 | 0.00071 | 0.041 | 0.029 | 39 | 41 | T0263018B11 T57S (VHH, name in Kabat numbering, FLAG3-His6 tagged) VHH: EVQLVESGGGVVQPGGSLRLSCAASGFTFSSYAMYWVRQAPGKGLEWVSAISSGGGSSDYADSVKGRFTISRDNSKNTLYLQMNSLRPEDTALYYCAADTLYTSLTWYSYWGQGTLVTVSS
16 | 0.0016 | 0.0012 | 0.053 | 0.053 | 33 | 44 | T0263018B11 T96S (VHH, name in Kabat numbering, FLAG3-His6 tagged) VHH: EVQLVESGGGVVQPGGSLRLSCAASGFTFSSYAMYWVRQAPGKGLEWVSAISSGGGSTDYADSVKGRFTISRDNSKNTLYLQMNSLRPEDTALYYCAADSLYTSLTWYSYWGQGTLVTVSS
17 | 0.00086 | 0.00062 | 0.037 | 0.03 | 43 | 48 | T0263018B11 T57N (VHH, name in Kabat numbering, FLAG3-His6 tagged) VHH: EVQLVESGGGVVQPGGSLRLSCAASGFTFSSYAMYWVRQAPGKGLEWVSAISSGGGSNDYADSVKGRFTISRDNSKNTLYLQMNSLRPEDTALYYCAADTLYTSLTWYSYWGQGTLVTVSS
18 | 0.0039 | 0.0029 | 0.14 | 0.16 | 36 | 55 | T0263018B11 T96A (VHH, name in Kabat numbering, FLAG3-His6 tagged) VHH: EVQLVESGGGVVQPGGSLRLSCAASGFTFSSYAMYWVRQAPGKGLEWVSAISSGGGSTDYADSVKGRFTISRDNSKNTLYLQMNSLRPEDTALYYCAADALYTSLTWYSYWGQGTLVTVSS
19 | 0.0026 | 0.002 | 0.091 | 0.092 | 35 | 46 | T0263018B11 T96Q (VHH, name in Kabat numbering, FLAG3-His6 tagged) VHH: EVQLVESGGGVVQPGGSLRLSCAASGFTFSSYAMYWVRQAPGKGLEWVSAISSGGGSTDYADSVKGRFTISRDNSKNTLYLQMNSLRPEDTALYYCAADQLYTSLTWYSYWGQGTLVTVSS
20 | 0.0031 | 0.0024 | 0.16 | 0.2 | 52 | 83 | T0263018B11 T96F (VHH, name in Kabat numbering, FLAG3-His6 tagged) VHH: EVQLVESGGGVVQPGGSLRLSCAASGFTFSSYAMYWVRQAPGKGLEWVSAISSGGGSTDYADSVKGRFTISRDNSKNTLYLQMNSLRPEDTALYYCAADFLYTSLTWYSYWGQGTLVTVSS
21 | 0.00069 | 0.00042 | 0.036 | 0.024 | 52 | 57 | T0263018B11 T96I (VHH, name in Kabat numbering, FLAG3-His6 tagged) VHH: EVQLVESGGGVVQPGGSLRLSCAASGFTFSSYAMYWVRQAPGKGLEWVSAISSGGGSTDYADSVKGRFTISRDNSKNTLYLQMNSLRPEDTALYYCAADILYTSLTWYSYWGQGTLVTVSS
